# Test results reported in publication PMC2756588.
# T1: Lsb3, P43603
# T1 sequence (P43603 385-451, looked up): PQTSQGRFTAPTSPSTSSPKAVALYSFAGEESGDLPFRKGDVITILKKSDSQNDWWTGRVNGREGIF
# T2: Hse1, P38753
# T2 sequence (P38753 208-285, looked up): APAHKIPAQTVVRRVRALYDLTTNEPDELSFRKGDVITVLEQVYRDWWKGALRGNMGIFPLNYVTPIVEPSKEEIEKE
# T3: Boi1, P38041
# T3 sequence (P38041 1-86, looked up): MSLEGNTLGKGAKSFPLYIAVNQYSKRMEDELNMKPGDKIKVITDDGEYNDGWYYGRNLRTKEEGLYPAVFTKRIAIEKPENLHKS
# T4: Cdc25, P04821
# T4 sequence (P04821 50-136, looked up): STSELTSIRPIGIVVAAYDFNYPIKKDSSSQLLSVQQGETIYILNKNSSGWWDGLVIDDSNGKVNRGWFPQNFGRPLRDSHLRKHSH
# T5: Boi2, P39969
# T5 sequence (P39969 32-116, looked up): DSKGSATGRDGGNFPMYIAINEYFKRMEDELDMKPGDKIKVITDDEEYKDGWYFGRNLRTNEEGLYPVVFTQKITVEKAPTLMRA
# T6: Bbc1, P47068
# T6 sequence (P47068 1-78, looked up): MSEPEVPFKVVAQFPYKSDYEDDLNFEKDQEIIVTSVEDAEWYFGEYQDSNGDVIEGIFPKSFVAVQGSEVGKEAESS
# T7: Abp1, P15891
# T7 sequence (P15891 535-592, looked up): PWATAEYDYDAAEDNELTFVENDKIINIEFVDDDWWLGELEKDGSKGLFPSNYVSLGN
# T8: Lsb1, P53281
# T8 sequence (P53281 45-122, looked up): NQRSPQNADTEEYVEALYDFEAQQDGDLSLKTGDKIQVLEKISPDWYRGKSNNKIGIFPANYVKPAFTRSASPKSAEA
# T9: Myo5, Q04439
# T9 sequence (Q04439 1072-1160, looked up): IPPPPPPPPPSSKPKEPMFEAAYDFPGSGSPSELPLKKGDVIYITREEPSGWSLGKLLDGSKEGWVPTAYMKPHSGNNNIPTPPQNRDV
# T10: Nbp2, Q12163
# T10 sequence (Q12163 103-180, looked up): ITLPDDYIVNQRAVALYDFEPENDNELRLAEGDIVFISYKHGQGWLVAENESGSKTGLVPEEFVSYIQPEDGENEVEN
# T11: Hof1, Q05080
# T11 sequence (Q05080 590-669, looked up): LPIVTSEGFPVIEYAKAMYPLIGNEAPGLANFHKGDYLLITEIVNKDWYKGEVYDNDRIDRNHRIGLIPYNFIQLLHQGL
# T12: Bud14, P27637
# T12 sequence (P27637 247-328, looked up): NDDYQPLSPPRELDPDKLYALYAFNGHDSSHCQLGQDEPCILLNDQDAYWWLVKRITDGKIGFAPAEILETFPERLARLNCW
# T13: Pin3, Q06449
# T13 sequence (Q06449 53-122, looked up): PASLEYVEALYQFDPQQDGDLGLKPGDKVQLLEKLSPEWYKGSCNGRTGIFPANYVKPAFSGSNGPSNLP
# T14: Fus1, P11710
# T14 sequence (P11710 432-512, looked up): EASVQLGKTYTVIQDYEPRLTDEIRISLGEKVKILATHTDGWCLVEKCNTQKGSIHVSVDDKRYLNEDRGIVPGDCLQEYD
# T15: Bzz1-2, P38822
# T15 sequence (P38822 568-633, looked up): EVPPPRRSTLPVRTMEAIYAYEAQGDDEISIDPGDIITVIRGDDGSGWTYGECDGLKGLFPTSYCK
# T16: Bzz1-1, P38822
# T16 sequence (P38822 478-572, looked up): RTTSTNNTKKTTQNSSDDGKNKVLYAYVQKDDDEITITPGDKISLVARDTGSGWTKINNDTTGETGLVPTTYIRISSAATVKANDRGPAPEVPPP
# T17: Lsb4, P32793
# T17 sequence (P32793 402-468, looked up): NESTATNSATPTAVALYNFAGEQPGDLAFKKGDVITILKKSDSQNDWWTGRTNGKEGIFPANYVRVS
# T18: Sla1-2, P32790
# T18 sequence (P32790 60-140, looked up): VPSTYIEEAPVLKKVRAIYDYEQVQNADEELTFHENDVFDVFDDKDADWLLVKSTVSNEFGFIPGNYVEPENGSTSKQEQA
# T19: Sla1-3, P32790
# T19 sequence (P32790 344-424, looked up): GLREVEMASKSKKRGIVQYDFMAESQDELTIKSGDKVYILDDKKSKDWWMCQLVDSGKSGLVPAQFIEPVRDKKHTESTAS
# T20: Pex13, P80667
# T20 sequence (P80667 295-386, looked up): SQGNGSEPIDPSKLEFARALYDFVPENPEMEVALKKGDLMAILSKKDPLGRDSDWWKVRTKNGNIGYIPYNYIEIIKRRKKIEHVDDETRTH
# T21: Cyk3, Q07533
# T21 sequence (Q07533 1-83, looked up): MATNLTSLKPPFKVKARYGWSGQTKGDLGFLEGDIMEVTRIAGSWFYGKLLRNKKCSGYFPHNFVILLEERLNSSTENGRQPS
# Molecular target: T1, Lsb3, P43603
# Test: SPOT array
# Details: median of control spots 406
row,SPOT intensity,Binder
1,1,VQKRKLPLPGSIASA
2,0,STKKPRPPVKSKPKH
3,155,FPGKKSPRLPHRNKK

# Molecular target: T2, Hse1, P38753
# Test: SPOT array
# Details: median of control spots 1727
row,SPOT intensity,Binder
1,0,VQKRKLPLPGSIASA
2,1,STKKPRPPVKSKPKH
3,8,FPGKKSPRLPHRNKK

# Molecular target: Myo3, P36006
# Test: SPOT array
# Details: median of control spots 468
row,SPOT intensity,Binder
1,0,VQKRKLPLPGSIASA
2,0,STKKPRPPVKSKPKH
3,0,FPGKKSPRLPHRNKK

# Molecular target: Bem1-1, P29366
# Test: SPOT array
# Details: median of control spots 4282
# Sequence of Bem1-1, P29366 (P29366 55-141): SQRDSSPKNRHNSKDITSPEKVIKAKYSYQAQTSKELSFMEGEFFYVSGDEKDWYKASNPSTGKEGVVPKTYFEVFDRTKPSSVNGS
row,SPOT intensity,Binder
1,0,VQKRKLPLPGSIASA
2,0,STKKPRPPVKSKPKH
3,0,FPGKKSPRLPHRNKK

# Molecular target: T3, Boi1, P38041
# Test: SPOT array
# Details: median of control spots 1162
row,SPOT intensity,Binder
1,0,VQKRKLPLPGSIASA
2,0,STKKPRPPVKSKPKH
3,7,FPGKKSPRLPHRNKK

# Molecular target: T4, Cdc25, P04821
# Test: SPOT array
# Details: median of control spots 969
row,SPOT intensity,Binder
1,18,VQKRKLPLPGSIASA
2,0,STKKPRPPVKSKPKH
3,35,FPGKKSPRLPHRNKK

# Molecular target: T5, Boi2, P39969
# Test: SPOT array
# Details: median of control spots 1161
row,SPOT intensity,Binder
1,0,VQKRKLPLPGSIASA
2,1,STKKPRPPVKSKPKH
3,0,FPGKKSPRLPHRNKK

# Molecular target: Sho1, P40073
# Test: SPOT array
# Details: median of control spots 1148
# Sequence of Sho1, P40073 (P40073 287-367): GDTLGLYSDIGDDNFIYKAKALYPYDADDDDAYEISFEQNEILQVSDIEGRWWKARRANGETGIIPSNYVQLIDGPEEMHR
row,SPOT intensity,Binder
1,11,VQKRKLPLPGSIASA
2,12,STKKPRPPVKSKPKH
3,84,FPGKKSPRLPHRNKK

# Molecular target: T6, Bbc1, P47068
# Test: SPOT array
# Details: median of control spots 796
row,SPOT intensity,Binder
1,23,VQKRKLPLPGSIASA
2,3,STKKPRPPVKSKPKH
3,13,FPGKKSPRLPHRNKK

# Molecular target: T7, Abp1, P15891
# Test: SPOT array
# Details: median of control spots 935
row,SPOT intensity,Binder
1,157,VQKRKLPLPGSIASA
2,397,STKKPRPPVKSKPKH
3,175,FPGKKSPRLPHRNKK

# Molecular target: T8, Lsb1, P53281
# Test: SPOT array
# Details: median of control spots 388
row,SPOT intensity,Binder
1,0,VQKRKLPLPGSIASA
2,0,STKKPRPPVKSKPKH
3,5,FPGKKSPRLPHRNKK

# Molecular target: Rvs167, P39743
# Test: SPOT array
# Details: median of control spots 2707
# Sequence of Rvs167, P39743 (P39743 419-482): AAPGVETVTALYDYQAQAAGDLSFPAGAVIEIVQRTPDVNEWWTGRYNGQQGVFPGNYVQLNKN
row,SPOT intensity,Binder
1,0,VQKRKLPLPGSIASA
2,12,STKKPRPPVKSKPKH
3,314,FPGKKSPRLPHRNKK

# Molecular target: T9, Myo5, Q04439
# Test: SPOT array
# Details: median of control spots 471
row,SPOT intensity,Binder
1,0,VQKRKLPLPGSIASA
2,0,STKKPRPPVKSKPKH
3,0,FPGKKSPRLPHRNKK

# Molecular target: T10, Nbp2, Q12163
# Test: SPOT array
# Details: median of control spots 357
row,SPOT intensity,Binder
1,1,VQKRKLPLPGSIASA
2,0,STKKPRPPVKSKPKH
3,0,FPGKKSPRLPHRNKK

# Molecular target: T11, Hof1, Q05080
# Test: SPOT array
# Details: median of control spots 4086
row,SPOT intensity,Binder
1,0,VQKRKLPLPGSIASA
2,0,STKKPRPPVKSKPKH
3,1,FPGKKSPRLPHRNKK

# Molecular target: T12, Bud14, P27637
# Test: SPOT array
# Details: median of control spots 956
row,SPOT intensity,Binder
1,0,VQKRKLPLPGSIASA
2,3,STKKPRPPVKSKPKH
3,22,FPGKKSPRLPHRNKK

# Molecular target: T13, Pin3, Q06449
# Test: SPOT array
# Details: median of control spots 2171
row,SPOT intensity,Binder
1,0,VQKRKLPLPGSIASA
2,0,STKKPRPPVKSKPKH
3,0,FPGKKSPRLPHRNKK

# Molecular target: T14, Fus1, P11710
# Test: SPOT array
# Details: median of control spots 1200
row,SPOT intensity,Binder
1,0,VQKRKLPLPGSIASA
2,1,STKKPRPPVKSKPKH
3,0,FPGKKSPRLPHRNKK

# Molecular target: T15, Bzz1-2, P38822
# Test: SPOT array
# Details: median of control spots 4538
row,SPOT intensity,Binder
1,0,VQKRKLPLPGSIASA
2,5,STKKPRPPVKSKPKH
3,5,FPGKKSPRLPHRNKK

# Molecular target: T16, Bzz1-1, P38822
# Test: SPOT array
# Details: median of control spots 4446
row,SPOT intensity,Binder
1,0,VQKRKLPLPGSIASA
2,1,STKKPRPPVKSKPKH
3,0,FPGKKSPRLPHRNKK

# Molecular target: Bem1-2, P29366
# Test: SPOT array
# Details: median of control spots 4347
# Sequence of Bem1-2, P29366 (P29366 139-227): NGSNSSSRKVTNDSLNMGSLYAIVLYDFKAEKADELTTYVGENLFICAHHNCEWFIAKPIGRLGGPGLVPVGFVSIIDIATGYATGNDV
row,SPOT intensity,Binder
1,1,VQKRKLPLPGSIASA
2,2,STKKPRPPVKSKPKH
3,0,FPGKKSPRLPHRNKK

# Molecular target: T17, Lsb4, P32793
# Test: SPOT array
# Details: median of control spots 397
row,SPOT intensity,Binder
1,13,VQKRKLPLPGSIASA
2,0,STKKPRPPVKSKPKH
3,225,FPGKKSPRLPHRNKK

# Molecular target: T18, Sla1-2, P32790
# Test: SPOT array
# Details: median of control spots 712
row,SPOT intensity,Binder
1,0,VQKRKLPLPGSIASA
2,0,STKKPRPPVKSKPKH
3,0,FPGKKSPRLPHRNKK

# Molecular target: T19, Sla1-3, P32790
# Test: SPOT array
# Details: median of control spots 5475
row,SPOT intensity,Binder
1,4,VQKRKLPLPGSIASA
2,5,STKKPRPPVKSKPKH
3,12,FPGKKSPRLPHRNKK

# Molecular target: GST
# Test: SPOT array
# Details: median of control spots 978
row,SPOT intensity,Binder
1,0,VQKRKLPLPGSIASA
2,2,STKKPRPPVKSKPKH
3,1,FPGKKSPRLPHRNKK

# Molecular target: T20, Pex13, P80667
# Test: SPOT array
# Details: median of control spots 1341
row,SPOT intensity,Binder
1,0,VQKRKLPLPGSIASA
2,0,STKKPRPPVKSKPKH
3,16,FPGKKSPRLPHRNKK

# Molecular target: T21, Cyk3, Q07533
# Test: SPOT array
# Details: median of control spots 1451
row,SPOT intensity,Binder
1,0,VQKRKLPLPGSIASA
2,3,STKKPRPPVKSKPKH
3,3,FPGKKSPRLPHRNKK
